US20200181247A1 (published 2020)
Positions count from the first letter of the chain named. Names may count otherwise. One block for each binder: values may come before it.

Experiments:
A-beta42 Monomer = molecular target: T1, A-beta42 Monomer (human); assay: SPR; purified antibody immobilized, A-beta preparation flowed over
T1 construct: Recombinant A-beta42 peptide (California Peptide), HFIP-treated, in DMSO then water, used at once; also called Ab42 Monomer; A-beta 1-42 monomer

[1] = molecular target: T2, A-beta42 Oligomer (synthetic, prepared in F12 medium) (human); assay: as above
T2 construct: Non-covalent oligomer of recombinant A-beta42 (California Peptide), 100 µM in F12 medium, 24 h to 7 days at 4 °C; also called Ab42 Oligomer; A-beta 1-42 oligomers
T2 sequence (peptide, as listed by the source): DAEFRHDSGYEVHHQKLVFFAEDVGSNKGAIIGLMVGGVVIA

[2] = molecular target: T3, commercially-prepared stable A-beta42 Oligomers (SynAging SAS) (human); assay: ProteOn biosensor; antibody captured or amine-coupled on GLM chip, AbO dilutions 1 uM to 12.3 nM
T3 construct: Bought oligomer preparation; also called AbO (SynAging); SynAging AbO
T3 sequence (peptide, as listed by the source): as above
Procedure: AbO 3 fold-dilutions were used: 1 uM, 0.33 uM, 0.11 uM, 37 nM, 12.3 nM. Assay buffer was PBS-E+Tween 20+2 mg/ml BSA.

[3] = molecular target: T4, cyclo(CGHHQKG) (SEQ ID NO: 12) conjugated to BSA (also: conjugated to BSA); assay: ProteOn biosensor; antibody amine-coupled to GLH chip, Cyclo-BSA dilutions 9 nM to 111 pM
T4 construct: Synthetic cyclic peptide (CPC Scientific) holding HHQK of A-beta; also called Cyclic Peptide; cyclopeptide
T4 peptide: cyclo(CGHHQKG)
Procedure: Cyclo-BSA 3-fold dilutions were used from 9 nM to 111 pM. Assay buffer was PBS-E+0.05% Tween+10 mg/ml BSA.

[4] = molecular target: T4, cyclo(CGHHQKG) (SEQ ID NO: 12) …; assay: single cycle Biacore analysis
Procedure: The fully humanized antibodies were prepared using Composite Human Antibody™ technology. The humanized variable region genes were cloned into vectors encoding a human IgG4 (S241P hinge variant) heavy chain constant domain and a human kappa light chain constant domain. Chimeric and humanized antibodies were transiently expressed in CHO cells and Protein A purified and tested.
Binding was determined using single cycle Biacore analysis. Antibodies were analysed in two separate experiments.

[5] = molecular target: T4, cyclo(CGHHQKG) (SEQ ID NO: 12) …; assay: SPR; immobilized antibody pre-exposed to cyclic peptide

T1 sequence (peptide, as listed by the source): as above

B1: 301-11 (antibody, V domains shown)
VH: EVQLVESGGGLVKPGGSLKLSCAASGFTFSDYYMYWVRQTPEKRLEWVATISDGGSYTSYPDSVKGRFTISRDNAKNNLYLQMSSLRSEDTAMYYCARDYYGSSSYTSGFAYWGQGTLVTVSA
VL: DIVMSQSPSSLAVSTGEKVTMSCKSSQSLLNSRTRKNYLAWYQQKPGQSPKLLIYWASTRESGVPDRFTGSGSGTDFTLTISSVQAEDLAVYYCKQSYNLYTFGGGTKLEIK
notes: Mouse monoclonal from hybridoma, IgG3 / kappa, raised against cyclo(CGHHQKG)-KLH
- binding response (RU) (A-beta42 Monomer): -14.1 RU
- binding response (RU) [1]: -2.8 RU

B3: 301-17 chimeric antibody (VH0 Vk0, human IgG4) (antibody, V domains shown)
VH: QVQLQQPGAELVKPGASVKMSCKASGYSFTSYWINWVKQRPGQGLEWIGDVHPGRGVSTYNAKFKSKATLTLDTSSSTAYMQLSSLTSEDSAVYYCSRSHGNTYWFFDVWGAGTTVTVSS
VL: DVLMTQTPLSLPVSLGDQASISCRSSQSIVHSNGNTYLEWYLQKPGQSPKLLIYKVSNRFSGVPDRFSGSGSGTDFTLKISRVEAEDLGVYYCFQGSHVPFTFGSGTKLEIK
notes: expressed in CHO cells; not expressly tied to the chimeric one; also called V0H0 and V0k0
- Kd [4]: ~0.02 nM

B4: Humanized antibody of 301-17 (VH2 Vk5), IgG4 isotype (S241P hinge mutation) (antibody, V domains shown)
VH: B3 VH with Q5V, P7S, L11V, V12K, K67R, S76I, Q82E, T87R, S91T, A112Q
VL: DVLMTQSPLSLPVTLGQPASISCRSSQSIVHSNGNTYLEWYQQRPGQSPRLLIYKVSNRFSGVPDRFSGSGSGTDFTLKISRVEAEDVGVYYCFQGSHVPFTFGQGTKLEIKR
notes: also called hu301-17
- binding result [5]: binds

Results, then the binder that gave them:

- Kd [2]: 16.2 to 19.5 nM
- Kd [3]: ~0.017 nM
B2: Recombinant 301-17 IgG2a (antibody)
heavy: QVQLQQPGAELVKPGASVKMSCKASGYSFTSYWINWVKQRPGQGLEWIGDVHPGRGVSTYNAKFKSKATLTLDTSSSTAYMQLSSLTSEDSAVYYCSRSHGNTYWFFDVWGAGTTVTVSSAKTTAPSVYPLAPVCGDTTGSSVTLGCLVKGYFPEPVTLTWNSGSLSSGVHTFPAVLQSDLYTLSSSVTVTSSTWPSQSITCNVAHPASSTKVDKKIEPRGPTIKPCPPCKCPAPNLLGGPSVFIFPPKIKDVLMISLSPIVTCVVVDVSEDDPDVQISWFVNNVEVHTAQTQTHREDYNSTLRVVSALPIQHQDWMSGKEFKCKVNNKDLPAPIERTISKPKGSVRAPQVYVLPPPEEEMTKKQVTLTCMVTDFMPEDIYVEWTNNGKTELNYKNTEPVLDSDGSYFMYSKLRVEKKNWVERNSYSCSVVHEGLHNHHTTKSFSRTPGK
light: DVLMTQTPLSLPVSLGDQASISCRSSQSIVHSNGNTYLEWYLQKPGQSPKLLIYKVSNRFSGVPDRFSGSGSGTDFTLKISRVEAEDLGVYYCFQGSHVPFTFGSGTKLEIKRADAAPTVSIFPPSSEQLTSGGASVVCFLNNFYPKDINVKWKIDGSERQNGVLNSWTDQDSKDSTYSMSSTLTLTKDEYERHNSYTCEATHKTSTSPIVKSFNRNEC

- Kd [4]: 0.4 nM
- binding response (RU) (A-beta42 Monomer): -27.1 RU
- binding response (RU) [1]: 148 RU
- Kd [2]: ~26.9 nM
B5: 301-17 (hybridoma-purified 301-17 IgG3) (antibody, V domains shown)
VH: QVQLQQPGAELVKPGASVKMSCKASGYSFTSYWINWVKQRPGQGLEWIGDVHPGRGVSTYNAKFKSKATLTLDTSSSTAYMQLSSLTSEDSAVYYCSRSHGNTYWFFDVWGAGTTVTVSSATTTAPS
VL: DVLMTQTPLSLPVSLGDQASISCRSSQSIVHSNGNTYLEWYLQKPGQSPKLLIYKVSNRFSGVPDRFSGSGSGTDFTLKISRVEAEDLGVYYCFQGSHVPFTFGSGTKLEIKRADA
notes: Mouse monoclonal from hybridoma, IgG3 / kappa; also called mu301-17
